The supplement of paper PMC9876800

Test system: peptide library, one residue held at a place counted from the S/T acceptor
Assay: relative phosphorylation of the sub-library (ratio to the mean residue at this position); higher = residue favoured
Conditions: human
Outline: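 Purified recombinant kinases, either human or orthologue constructs, were incubated in 384-well plates with biotinylated degenerate peptide sub-libraries. Each sub-library fixed one residue at one position around a central Ser/Thr. Peptides at 50 μM and 50 μM ATP spiked with γ-32P-ATP were used for 90 min under kinase-specific conditions, and spots on streptavidin membranes were phosphorimaged and quantified by densitometry. Relative sub-library phosphorylation is expressed as a ratio to the mean residue at that position.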

Sequence of CDK9, construct: Full length (P50750 whole entry, looked up): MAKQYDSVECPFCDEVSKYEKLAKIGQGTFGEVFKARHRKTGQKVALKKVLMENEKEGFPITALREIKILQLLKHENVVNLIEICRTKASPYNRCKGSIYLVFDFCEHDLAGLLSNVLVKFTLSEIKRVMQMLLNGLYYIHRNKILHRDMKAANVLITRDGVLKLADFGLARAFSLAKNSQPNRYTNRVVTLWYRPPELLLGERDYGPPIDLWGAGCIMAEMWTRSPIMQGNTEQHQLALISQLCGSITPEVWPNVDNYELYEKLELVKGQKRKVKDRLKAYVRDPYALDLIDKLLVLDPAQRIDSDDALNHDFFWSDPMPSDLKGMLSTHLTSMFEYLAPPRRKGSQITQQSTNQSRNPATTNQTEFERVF
Sequence of GAK, construct: aa24-359 (O14976 24-359, looked up): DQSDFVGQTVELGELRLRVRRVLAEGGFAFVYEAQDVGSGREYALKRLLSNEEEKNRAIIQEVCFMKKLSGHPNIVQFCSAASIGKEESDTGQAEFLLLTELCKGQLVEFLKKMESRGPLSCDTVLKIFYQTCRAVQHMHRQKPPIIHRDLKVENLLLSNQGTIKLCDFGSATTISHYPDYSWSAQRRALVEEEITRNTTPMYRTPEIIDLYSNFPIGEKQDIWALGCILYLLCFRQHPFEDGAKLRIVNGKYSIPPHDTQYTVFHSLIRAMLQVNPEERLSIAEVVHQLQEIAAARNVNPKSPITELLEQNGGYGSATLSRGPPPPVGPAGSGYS
Sequence of DSTYK, construct: Full length (Q6XUX3 whole entry, looked up): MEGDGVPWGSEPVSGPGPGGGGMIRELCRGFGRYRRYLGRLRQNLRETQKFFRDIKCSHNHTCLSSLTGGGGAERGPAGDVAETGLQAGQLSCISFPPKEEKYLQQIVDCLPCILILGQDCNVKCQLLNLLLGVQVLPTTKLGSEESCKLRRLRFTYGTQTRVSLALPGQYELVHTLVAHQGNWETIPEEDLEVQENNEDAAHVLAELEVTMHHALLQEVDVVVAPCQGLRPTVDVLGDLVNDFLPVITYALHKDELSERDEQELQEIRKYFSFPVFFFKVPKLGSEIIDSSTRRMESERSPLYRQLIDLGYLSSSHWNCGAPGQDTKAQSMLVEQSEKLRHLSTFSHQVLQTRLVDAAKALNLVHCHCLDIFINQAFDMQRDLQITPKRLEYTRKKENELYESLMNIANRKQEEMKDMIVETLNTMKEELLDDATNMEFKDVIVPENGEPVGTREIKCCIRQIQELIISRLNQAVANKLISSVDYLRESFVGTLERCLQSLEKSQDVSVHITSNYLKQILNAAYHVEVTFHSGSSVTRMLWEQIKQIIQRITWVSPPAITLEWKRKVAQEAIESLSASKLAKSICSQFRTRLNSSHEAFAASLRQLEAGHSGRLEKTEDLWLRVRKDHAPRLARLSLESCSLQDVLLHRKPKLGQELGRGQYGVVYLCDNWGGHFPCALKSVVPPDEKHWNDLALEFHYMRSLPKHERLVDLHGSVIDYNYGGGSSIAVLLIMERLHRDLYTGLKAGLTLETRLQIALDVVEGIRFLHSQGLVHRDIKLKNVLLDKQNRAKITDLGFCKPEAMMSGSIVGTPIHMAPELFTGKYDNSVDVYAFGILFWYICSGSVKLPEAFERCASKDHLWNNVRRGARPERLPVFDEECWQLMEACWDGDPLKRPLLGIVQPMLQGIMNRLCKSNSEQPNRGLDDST

CDK9, construct: Full length (from UniProt P50750)
relative phosphorylation
Conditions | at +1 | at +2 | at +3 | at +4 | at -1 | at -2 | at -3 | at -4 | at -5
A fixed | 0.39 | 0.956 | 0.702 | 0.931 | 1.2 | 1.52 | 1.17 | 1.19 | 1.13
D fixed | 0.167 | 0.493 | 0.429 | 0.79 | 0.328 | 0.322 | 0.339 | 0.607 | 0.572
E fixed | 0.212 | 0.478 | 0.409 | 0.913 | 0.34 | 0.392 | 0.382 | 0.661 | 0.514
F fixed | 0.398 | 0.953 | 0.593 | 1.01 | 0.974 | 0.919 | 1.01 | 1.13 | 1.25
G fixed | 0.943 | 1.35 | 0.85 | 1.13 | 1.34 | 1.12 | 1.82 | 1.14 | 1.01
H fixed | 0.286 | 1.57 | 3 | 1.45 | 1.02 | 0.973 | 1.12 | 1.13 | 1.27
I fixed | 0.306 | 0.708 | 0.547 | 0.871 | 0.353 | 0.956 | 0.902 | 0.868 | 0.858
K fixed | 0.328 | 1.24 | 0.828 | 0.752 | 1.51 | 0.91 | 0.939 | 1.1 | 1.09
L fixed | 0.404 | 0.736 | 0.453 | 0.791 | 0.98 | 0.95 | 0.868 | 0.914 | 0.82
M fixed | 0.347 | 0.769 | 0.478 | 0.893 | 1.75 | 1.53 | 0.963 | 0.969 | 0.853
N fixed | 0.217 | 1.18 | 0.79 | 0.983 | 0.82 | 0.805 | 0.896 | 0.895 | 0.876
P fixed | 11.4 | 0.652 | 1.38 | 0.984 | 1.14 | 1.32 | 1.15 | 1.06 | 1.01
Q fixed | 0.285 | 0.928 | 0.987 | 0.928 | 1.08 | 0.796 | 0.813 | 0.804 | 0.833
R fixed | 0.327 | 2.31 | 2.45 | 0.973 | 1.78 | 1.23 | 1.68 | 1.18 | 1.23
V fixed | 0.388 | 0.734 | 0.545 | 0.84 | 0.559 | 0.821 | 0.939 | 0.855 | 0.892
W fixed | 0.331 | 0.95 | 1.28 | 1.57 | 0.836 | 1.32 | 0.958 | 1.31 | 1.46
Y fixed | 0.315 | 0.999 | 1.28 | 1.19 | 0.992 | 1.12 | 1.05 | 1.19 | 1.33
pThr fixed | 0.374 | 0.622 | 0.475 | 0.979 | 0.284 | 0.487 | 0.615 | 0.723 | 0.719
pTyr fixed | 0.379 | 0.536 | 1.18 | 1.2 | 0.558 | 0.526 | 0.607 | 0.838 | 0.714

DSTYK, construct: Full length (from UniProt Q6XUX3)
relative phosphorylation
Conditions | at +1 | at +2 | at +3 | at +4 | at -1 | at -2 | at -3 | at -4 | at -5
A fixed | 0.815 | 1.14 | 0.976 | 1.07 | 1.15 | 0.947 | 0.937 | 1.05 | 1.27
D fixed | 0.5 | 0.992 | 0.68 | 0.984 | 1.7 | 2.48 | 1.41 | 1.8 | 1.74
E fixed | 0.639 | 1.52 | 0.934 | 1.05 | 2 | 2.13 | 0.887 | 1.52 | 1.43
F fixed | 1.11 | 0.465 | 1.04 | 0.754 | 0.584 | 0.828 | 2.04 | 1.12 | 0.944
G fixed | 1.19 | 0.729 | 0.872 | 1.12 | 0.813 | 1.11 | 0.697 | 1.34 | 1.31
H fixed | 0.834 | 1.08 | 1.25 | 0.955 | 0.924 | 1.15 | 1.02 | 0.96 | 1.12
I fixed | 1.52 | 0.48 | 0.915 | 0.663 | 0.577 | 0.701 | 1.07 | 0.721 | 0.619
K fixed | 0.434 | 1.85 | 1.09 | 1.29 | 0.93 | 0.366 | 0.453 | 0.718 | 1.05
L fixed | 1.54 | 0.461 | 1.1 | 0.754 | 0.97 | 1.25 | 1.7 | 0.862 | 0.732
M fixed | 1.55 | 0.667 | 0.977 | 0.837 | 0.911 | 1.1 | 1.36 | 0.744 | 0.698
N fixed | 0.878 | 1.3 | 0.83 | 1.11 | 1.48 | 1.03 | 0.676 | 0.908 | 0.935
P fixed | 0.218 | 0.587 | 0.738 | 1.45 | 0.324 | 0.228 | 0.513 | 0.777 | 0.916
Q fixed | 1.21 | 1.29 | 1.02 | 1.15 | 1.31 | 1.04 | 0.692 | 0.793 | 0.773
R fixed | 0.499 | 2.58 | 1.3 | 1.23 | 1.2 | 0.467 | 0.471 | 0.639 | 0.835
V fixed | 1.65 | 0.685 | 1.08 | 0.734 | 0.667 | 0.765 | 0.6 | 0.598 | 0.733
W fixed | 0.993 | 0.595 | 1.09 | 1.04 | 0.682 | 0.717 | 1.29 | 1.63 | 1.17
Y fixed | 1.41 | 0.569 | 1.11 | 0.797 | 0.774 | 0.69 | 1.19 | 0.819 | 0.722
pThr fixed | 1.23 | 1.43 | 0.787 | 1.09 | 0.845 | 1.66 | 0.996 | 1.03 | 1.04
pTyr fixed | 2.22 | 0.801 | 0.882 | 0.912 | 1.84 | 1.21 | 1.13 | 0.961 | 1.09

GAK, construct: aa24-359 (from UniProt O14976)
relative phosphorylation
Conditions | at +1 | at +2 | at +3 | at +4 | at -1 | at -2 | at -3 | at -4 | at -5
A fixed | 0.783 | 1.19 | 0.848 | 0.882 | 0.845 | 0.985 | 0.819 | 0.986 | 0.954
D fixed | 0.647 | 0.954 | 0.997 | 0.884 | 0.75 | 0.753 | 0.898 | 1.14 | 1.08
E fixed | 0.658 | 0.86 | 1.05 | 0.891 | 0.653 | 0.778 | 0.912 | 1.49 | 1.03
F fixed | 0.643 | 0.918 | 0.862 | 1.02 | 0.904 | 0.801 | 0.709 | 0.856 | 0.879
G fixed | 5.69 | 1.37 | 1.28 | 0.908 | 0.974 | 1.08 | 0.888 | 0.947 | 0.831
H fixed | 0.829 | 1.13 | 1.19 | 0.96 | 1.13 | 1.13 | 1.11 | 1.11 | 1.1
I fixed | 0.588 | 0.741 | 0.822 | 0.849 | 0.824 | 0.879 | 0.935 | 0.852 | 1.06
K fixed | 0.766 | 1.08 | 1.21 | 1.21 | 2.28 | 1.1 | 1.43 | 1.12 | 1.09
L fixed | 0.615 | 0.801 | 0.914 | 0.987 | 0.808 | 0.994 | 1.01 | 0.83 | 0.802
M fixed | 0.649 | 0.792 | 0.825 | 0.896 | 0.813 | 1.06 | 1.07 | 0.875 | 0.853
N fixed | 0.841 | 1.28 | 1.22 | 0.913 | 0.973 | 1.65 | 1.17 | 0.941 | 0.978
P fixed | 0.729 | 0.736 | 0.801 | 0.834 | 1.23 | 0.687 | 0.751 | 0.69 | 0.696
Q fixed | 0.696 | 1.1 | 1.05 | 1 | 0.965 | 1.22 | 1.16 | 1.04 | 0.853
R fixed | 0.833 | 1.26 | 1.2 | 1.34 | 1.3 | 1.28 | 1.43 | 1.14 | 1.15
V fixed | 0.59 | 0.902 | 0.974 | 0.882 | 0.914 | 0.86 | 0.901 | 0.959 | 1
W fixed | 0.769 | 1.03 | 0.82 | 1.59 | 0.803 | 0.848 | 0.849 | 1.03 | 1.05
Y fixed | 0.672 | 0.831 | 0.931 | 0.947 | 0.838 | 0.9 | 0.959 | 0.998 | 1.6
pThr fixed | 0.904 | 1.95 | 1.38 | 1.44 | 1.22 | 1.63 | 1.69 | 1.55 | 1.23
pTyr fixed | 0.674 | 0.963 | 0.94 | 0.772 | 0.884 | 1.09 | 1.27 | 1.23 | 1.27
